We go through one molecule from patent US20080108546A1 (VLAAMS INTERUNIVERSITAIR INSTITUUT, published 2008).

The target in this experiment is T1, E-epitope tagged human RIP2 (human, UniProt O43353 1-540).
T1 construct: ORF cloned in pCAGGS-E, expressed in 293T cells; also called E-RIP2
The experiment can be described thus: co-immunoprecipitation from 293T lysates, anti-Flag IP, anti-E immunoblot. The method, then: FIG. 4: Interactions of INCA with other CARD-containing proteins. Co-immunoprecipitation assays were performed using lysates from 293T cells that have been transiently transfected with plasmids encoding various epitope-tagged proteins as indicated, including Flag-INCA, E-INCA, E-procaspase-1, E-COP, E-ICEBERG, E-RIP2 and E-procaspase-2 CARD. Immunoprecipitates were prepared using anti-Flag antibody adsorbed to protein G-sepharose and analyzed by SDS-PAGE/immunoblotting using anti-E epitope tag antibody and chemoluminescence-based detection. Aliquots of the same lysates were also analyzed directly by SDS-PAGE/immunoblotting as indicated. IP, immunoprecipitation; WB: Western blotting.
293T is a human embryonal kidney carcinoma cell line. 293T cells were routinely transfected using the calcium phosphate precipitation method (O'Mahoney and Adams, 1994). Cells were seeded the day before transfection at 2×10⁵ cells/6-well. Cells were transfected for 4 h, washed and incubated for another 24 h before lysates were prepared by harvesting the cells and lysing them in ice-cold NP-40 lysis buffer (10 mM HEPES pH 7.4, 142.5 mM KCl, 0.2% NP-40, 5 mM EGTA), supplemented with 1 mM DTT, 12.5 mM β-glycerophosphate, 1 mM Na₃VO₄, 1 mM PMSF, and 1× protease inhibitor mix (Roche, Basel, Switzerland). […] Alternatively, lysates were analyzed directly by immunoblotting after normalization for total protein content. […]

T1 sequence (O43353 whole entry): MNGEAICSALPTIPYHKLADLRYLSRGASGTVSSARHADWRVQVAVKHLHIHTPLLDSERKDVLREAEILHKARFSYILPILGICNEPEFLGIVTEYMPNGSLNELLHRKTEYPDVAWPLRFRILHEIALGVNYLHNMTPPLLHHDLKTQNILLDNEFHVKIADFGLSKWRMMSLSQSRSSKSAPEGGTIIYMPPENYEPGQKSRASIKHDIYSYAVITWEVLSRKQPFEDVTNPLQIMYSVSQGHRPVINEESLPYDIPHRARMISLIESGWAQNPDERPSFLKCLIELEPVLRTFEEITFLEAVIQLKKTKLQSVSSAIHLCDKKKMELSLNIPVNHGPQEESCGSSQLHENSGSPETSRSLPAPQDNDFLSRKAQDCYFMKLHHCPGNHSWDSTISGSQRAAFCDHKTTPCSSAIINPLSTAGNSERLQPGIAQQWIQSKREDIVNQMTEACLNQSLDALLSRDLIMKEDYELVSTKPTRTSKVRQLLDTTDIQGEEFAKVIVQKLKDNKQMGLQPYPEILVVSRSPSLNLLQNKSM

B1: Flag-tagged INCA (Inhibitory CARD) (other, not shown: small tags and cut ends)
chain: MADKVLKEKRKQFIRSVGEGTINGLLGELLETRVLSQEEIEIVKCENATVMDKARALLDSVIRKGAPACQICITYICEEDSHLAGTLGLSAGPTSGNHLTTQDSQIVLPS
notes: Expressed in 293T cells (pCAGGS-Flag) for co-immunoprecipitation; Flag-tagged INCA also expressed stably in THP-1 cells from a retroviral vector; also called Flag-INCA
For the molecule B1, the binding result is on record as “no binding”.
